Consider three molecules from article PMC12311003, “Biochemical characterization of a novel purified lectin extracted from Pleurotus ostreatus mushroom for its antiviral activity” (Scientific Reports, 2025).

The target of assay [1] is HCV NS3/NS4A protease (Hepatitis C virus (isolate BK), UniProt P26663). The following applies: NS4A/NS4B-derived fluorogenic peptide substrate, 30 min, 37 °C; used as comparator drug.
The target in assay [2] is T1, HBV polymerase (Hepatitis B virus ayw/Japan/JYW796/1988, UniProt Q9QMI1).
T1 construct: gene P
T1 sequence (Q9QMI1 whole entry): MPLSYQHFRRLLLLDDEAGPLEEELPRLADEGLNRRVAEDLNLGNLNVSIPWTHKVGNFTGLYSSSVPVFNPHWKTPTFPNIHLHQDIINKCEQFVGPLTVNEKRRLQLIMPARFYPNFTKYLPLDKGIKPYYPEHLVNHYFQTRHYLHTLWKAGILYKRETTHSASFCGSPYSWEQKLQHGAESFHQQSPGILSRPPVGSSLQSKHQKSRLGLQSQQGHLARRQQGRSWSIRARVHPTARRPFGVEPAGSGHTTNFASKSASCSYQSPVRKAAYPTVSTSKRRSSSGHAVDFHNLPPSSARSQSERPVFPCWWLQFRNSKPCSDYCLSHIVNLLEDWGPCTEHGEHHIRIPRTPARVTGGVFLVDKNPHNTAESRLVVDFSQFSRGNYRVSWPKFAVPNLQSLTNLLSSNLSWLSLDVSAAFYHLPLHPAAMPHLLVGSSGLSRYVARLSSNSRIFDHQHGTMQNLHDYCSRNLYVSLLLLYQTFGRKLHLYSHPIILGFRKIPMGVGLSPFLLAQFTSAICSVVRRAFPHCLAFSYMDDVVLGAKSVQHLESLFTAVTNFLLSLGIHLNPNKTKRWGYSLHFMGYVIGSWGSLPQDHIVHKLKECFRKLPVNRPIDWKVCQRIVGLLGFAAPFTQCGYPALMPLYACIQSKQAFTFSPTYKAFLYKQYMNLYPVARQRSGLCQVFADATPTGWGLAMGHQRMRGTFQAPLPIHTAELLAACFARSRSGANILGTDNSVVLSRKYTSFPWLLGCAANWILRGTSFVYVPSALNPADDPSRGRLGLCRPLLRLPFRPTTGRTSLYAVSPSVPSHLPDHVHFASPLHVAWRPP
In words: [3H]TTP incorporation, scintillation counting. In kind it is biochemical.

Assay [3] concerns the target scavenger receptor class B-type I (SR-B1) (UniProt Q8WTV0). In words: AlphaScreen or HTRF. On the technique in general: Alpha assays give light when donor and acceptor beads are brought close together.
In assay [4] the target is CD81 (human (endogenous in PBMCs)) (UniProt P60033). As to the kind of experiment: flow cytometry on cells; 1 x 10^6 PBMCs incubated 2 h with 12.5 µM POL, then anti-CD81-FITC antibody at 4 °C for 30 min; binding taken from the fall in unbound CD81. On the technique in general: Flow cytometry measures light scatter and fluorescence of single cells or particles in a stream.
Sequence of CD81 (human (endogenous in PBMCs)) (P60033 whole entry): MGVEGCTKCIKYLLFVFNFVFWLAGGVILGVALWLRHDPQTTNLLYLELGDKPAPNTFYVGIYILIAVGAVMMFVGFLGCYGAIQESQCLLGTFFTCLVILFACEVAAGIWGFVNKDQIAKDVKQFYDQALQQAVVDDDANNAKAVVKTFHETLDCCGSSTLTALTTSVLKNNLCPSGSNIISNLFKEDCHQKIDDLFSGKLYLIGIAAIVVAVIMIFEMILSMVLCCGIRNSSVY

Sequence of scavenger receptor class B-type I (SR-B1) (Q8WTV0 whole entry): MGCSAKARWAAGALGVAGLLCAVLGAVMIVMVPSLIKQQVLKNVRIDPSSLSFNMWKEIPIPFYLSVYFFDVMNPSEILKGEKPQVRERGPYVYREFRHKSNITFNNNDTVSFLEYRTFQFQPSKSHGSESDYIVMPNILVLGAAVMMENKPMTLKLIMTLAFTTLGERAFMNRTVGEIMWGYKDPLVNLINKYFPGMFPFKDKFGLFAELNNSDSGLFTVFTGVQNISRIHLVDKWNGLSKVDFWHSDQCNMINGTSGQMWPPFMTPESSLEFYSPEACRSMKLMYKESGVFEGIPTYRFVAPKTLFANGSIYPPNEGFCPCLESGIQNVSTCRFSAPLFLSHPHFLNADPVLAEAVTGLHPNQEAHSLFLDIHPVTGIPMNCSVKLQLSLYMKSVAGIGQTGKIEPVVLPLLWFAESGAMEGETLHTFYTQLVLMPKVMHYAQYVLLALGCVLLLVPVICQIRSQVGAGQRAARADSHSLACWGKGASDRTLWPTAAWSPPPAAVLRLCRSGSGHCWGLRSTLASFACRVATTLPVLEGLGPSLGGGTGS
Sequence of HCV NS3/NS4A protease (P26663 1027-1657): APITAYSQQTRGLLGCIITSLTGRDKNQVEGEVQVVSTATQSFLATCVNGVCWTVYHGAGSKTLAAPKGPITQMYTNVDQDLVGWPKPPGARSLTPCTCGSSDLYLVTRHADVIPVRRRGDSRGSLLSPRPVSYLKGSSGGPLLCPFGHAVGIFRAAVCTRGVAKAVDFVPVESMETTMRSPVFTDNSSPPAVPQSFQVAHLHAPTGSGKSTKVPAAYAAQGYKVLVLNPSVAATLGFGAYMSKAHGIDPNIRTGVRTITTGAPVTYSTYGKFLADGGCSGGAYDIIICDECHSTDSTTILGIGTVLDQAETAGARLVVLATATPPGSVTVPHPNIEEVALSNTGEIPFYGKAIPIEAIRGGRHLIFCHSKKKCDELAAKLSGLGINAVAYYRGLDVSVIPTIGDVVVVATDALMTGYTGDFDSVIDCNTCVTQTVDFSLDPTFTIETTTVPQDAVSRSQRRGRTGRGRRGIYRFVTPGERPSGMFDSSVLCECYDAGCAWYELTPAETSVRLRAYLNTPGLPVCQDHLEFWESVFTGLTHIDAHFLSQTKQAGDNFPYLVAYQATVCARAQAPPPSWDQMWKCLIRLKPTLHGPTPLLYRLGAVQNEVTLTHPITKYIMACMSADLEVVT
Sequence of HCV NS3/NS4A protease (P26663 1658-1711): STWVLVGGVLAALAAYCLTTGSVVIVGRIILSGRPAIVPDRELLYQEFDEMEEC

A word on the IC50: it is the concentration needed to halve the response being measured. Read a high IC50 as lower potency. In assay [1], `CC(C)OC(=O)[C@H](C)N[P@](=O)(OC[C@H]1O[C@@H](n2ccc(=O)[nH]c2=O)[C@](C)(F)[C@@H]1O)Oc1ccccc1` [SOF, sofosbuvir] gave a concentration for half-maximal inhibition (IC50) of 15.5 nM.

Regarding `Nc1ccn([C@@H]2CS[C@H](CO)O2)c(=O)n1` [LAM, lamivudine], the IC50 in assay [2] is 6.52 nM.

The Kd is the constant that tells how readily two partners part at equilibrium. A high value points to a looser complex. In general, Ki refers to a dissociation constant, usually derived from enzyme kinetics or from competition with a known ligand. A high value points to lower affinity. In assay [3], “Pleurotus ostreatus lectin (POL) (natural protein)” displayed an IC50 of 10.1 nM, a Kd of 3.6 nM and a Ki of 3.03 nM. The percentage of binding to CD81 at 12.5 µM in assay [4] was 58.8%.
